± gives the half width of the 95% confidence interval.
What was measured:
[1] = folding stability dG unfold from trypsin proteolysis; higher = more stable
Procedure, shortened: (§1)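 Designed mini-proteins with no cysteine and under 80 residues were kept only if AlphaFold2 dimer inter-PAE was above 15. In a PA-tagged cDNA display construct, they were digested with trypsin and chymotrypsin and then sequenced. K50 was inferred by Bayesian fitting of counts, and unfolding free energy was derived per protease or combined against a sequence-predicted unfolded-state K50 and a shared folded-state K50.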

[2] = folding stability dG unfold from chymotrypsin proteolysis; higher = more stable
Procedure, shortened: as §1

[3] = folding stability dG unfold (combined trypsin and chymotrypsin); higher = more stable
Procedure, shortened: as §1

Row | Sequence | folding stability dG unfold [1] | folding stability dG unfold [2] | folding stability dG unfold [3]
1 | SAGGSAGGSAGKLPPGAKVEEVFEVEIEVTYLNPDTGEEVEKEKITVRVVKVDGKLVIEFSAGGSAGGSAGG [r11_415_TrROS_Hall] | 1.39 ± 0.11 kcal/mol | 2.79 ± 0.31 kcal/mol | 2.04 ± 0.25 kcal/mol
2 | SAGGSAGGSAGKLYIIRIKGKKIILSEDEVEKLKKKYPNAEIIPFKSKEDAEKALKKLKESAGGSAGGSAGG [r11_60_TrROS_Hall] | 2.16 ± 0.057 kcal/mol | 2.75 ± 0.079 kcal/mol | 2.52 ± 0.13 kcal/mol
3 | SAGGSAGGSAGKMKIRVKIKRKDGKTLVIEGMSLEEIKELAEKEGFEIEKVEVVEVEPEESAGGSAGGSAGG [r11_283_TrROS_Hall] | 3.23 ± 0.26 kcal/mol | 4.24 ± 0.13 kcal/mol | 4.02 ± 0.21 kcal/mol
4 | SAGGSAGGSAGKMLLIEIEVDGKKYLIEIEVPEGEEITPEELAKLLGIPNVKVKVYELEESAGGSAGGSAGG [r11_219_TrROS_Hall] | 2.47 ± 0.065 kcal/mol | 3.41 ± 0.04 kcal/mol | 3.11 ± 0.13 kcal/mol
5 | SAGGSAGGSAGKMYRITVTNENGEKLEIEVPEEVKTEEELKEELKKKIPNVVEVKIEEVPSAGGSAGGSAGG [r11_311_TrROS_Hall] | 0.242 ± 0.096 kcal/mol | 0.433 ± 0.14 kcal/mol | 0.377 ± 0.25 kcal/mol
6 | SAGGSAGGSAGKPEVEVETRLIKIDEEKGYYLRVTRVRVKNEDGSEFEFLSIEIIPKEDLSAGGSAGGSAGG [r11_51_TrROS_Hall] | 2.6 ± 0.098 kcal/mol | 3.91 ± 0.052 kcal/mol | 3.56 ± 0.071 kcal/mol
7 | SAGGSAGGSAGKPKKKPPKPKIETKTITVTITNKDGSKTTVTATIVRNKDTNELFIRISSSAGGSAGGSAGG [r11_1024_TrROS_Hall] | 3.07 ± 0.16 kcal/mol | 3.13 ± 0.12 kcal/mol | 2.98 ± 0.22 kcal/mol
8 | SAGGSAGGSAGKPLKVKKFEVELLVRDPETNRWYRIRAEVYRVEGLPDLFIIKLEIEELPSAGGSAGGSAGG [r11_1029_TrROS_Hall] | 3.96 ± 0.12 kcal/mol | 4.82 ± 0.099 kcal/mol | 4.6 ± 0.11 kcal/mol
9 | SAGGSAGGSAGKPNIKKEANLEIFVTEDELEKALEIVKKLEEEGIEVKEAKIYVLKPEEGSAGGSAGGSAGG [r11_533_TrMRF] | -0.858 ± 0.23 kcal/mol | -0.299 ± 0.39 kcal/mol | -0.318 ± 0.21 kcal/mol
10 | SAGGSAGGSAGKQPIEMWFMFPNGVAIVLRIKVDPPSPKAKIDAIEVVPVRDPDNGKWRFSAGGSAGGSAGG [r11_919_TrROS] | 0.566 ± 0.11 kcal/mol | 1.85 ± 0.1 kcal/mol | 1.38 ± 0.14 kcal/mol
11 | SAGGSAGGSAGKTIYAPYSKIPEVIEELKKKGYEIDSIEKVPNGSYKISFKNKPIEINLGSAGGSAGGSAGG [r17_379_TrMRF] | 3.24 ± 0.078 kcal/mol | 3.83 ± 0.048 kcal/mol | 3.65 ± 0.088 kcal/mol
12 | SAGGSAGGSAGKTYTFRVRIVDEETGEEKEIEVTAKSEEEAKKAAEELKKKYPNLKVELESAGGSAGGSAGG [r11_233_TrROS_Hall] | 2.98 ± 0.13 kcal/mol | 3.24 ± 0.036 kcal/mol | 3.22 ± 0.14 kcal/mol
13 | SAGGSAGGSAGKVTLVFKTKEDALNAIKELAEKEGLKVKIVKIEELPNGLIKITVEIEKPSAGGSAGGSAGG [r11_304_TrROS_Hall] | 3.99 ± 0.25 kcal/mol | 4.2 ± 0.095 kcal/mol | 4.22 ± 0.17 kcal/mol
14 | SAGGSAGGSAGKWKTITILIPNMPVEEIADRIMDKFGPGIRITEITPNKPGWFWITIIVRSAGGSAGGSAGG [r11_580_TrROS] | 3.29 ± 0.075 kcal/mol | 3.823 ± 0.037 kcal/mol | 3.62 ± 0.069 kcal/mol
15 | SAGGSAGGSAGLAEKLRDEIRESIKGPDGLEVPDDVELLSIDVPEDSAFVEVRFPADLPVSAGGSAGGSAGG [r17_519_TrMRF] | 0.436 ± 0.025 kcal/mol | 0.233 ± 0.02 kcal/mol | 0.363 ± 0.089 kcal/mol
16 | SAGGSAGGSAGLDNIKPEELKKLFPGYKVYLLKVEEVGGKLKVDVKILKYNPSTNTWTPESAGGSAGGSAGG [r11_20_TrMRF] | 1.13 ± 0.044 kcal/mol | 1.59 ± 0.14 kcal/mol | 1.48 ± 0.11 kcal/mol
17 | SAGGSAGGSAGLEIKIPNGNKTITVEKTKDYYKATIYFPETGEKVEFTFPPNVSLSLLDISAGGSAGGSAGG [r11_772_TrMRF] | 1.98 ± 0.11 kcal/mol | 1.12 ± 0.073 kcal/mol | 1.62 ± 0.18 kcal/mol
18 | SAGGSAGGSAGLPEEIADFVKEILEKAFPNVKVLEVEVEELPEGFYVVRARFEDGSEVEFPISAGGSAGGSA [r18_423_TrMRF] | 4.29 ± 0.091 kcal/mol | 3.47 ± 0.059 kcal/mol | 3.88 ± 0.069 kcal/mol
19 | SAGGSAGGSAGLPENVKLVKVTVTITYPNGEKETIPVVAPVPVLEKLLSLPGLPVSVTDESAGGSAGGSAGG [r17_313_TrMRF] | 0.465 ± 0.028 kcal/mol | 0.0595 ± 0.071 kcal/mol | 0.333 ± 0.12 kcal/mol
20 | SAGGSAGGSAGLPGAEKARKPKPKVKVKVTLTVLPDGTLVLRVTFEDGTTKTITLKLHPDLLSAGGSAGGSA [r18_192_TrMRF] | 2.37 ± 0.13 kcal/mol | 3.55 ± 0.11 kcal/mol | 3.08 ± 0.24 kcal/mol
21 | SAGGSAGGSAGLPPGDYRLFPFTVTITIPPIKVKDPNGDEHEIDNLEISITIYFFVPAGDSAGGSAGGSAGG [r11_907_TrROS] | 3.43 ± 0.15 kcal/mol | 4.58 ± 0.12 kcal/mol | 4.03 ± 0.34 kcal/mol

Source: the supplement of paper PMC12764529
